According to patent US20240190983A1 (JULIUS MAXIMILIANS UNIVERSIT T W RZBURG, published 2024):

What was measured:
Human TNFR2 [1] = biological target: T1, Human TNFR2 (human, UniProt P20333 23-461); experiment: specific binding of the GpL fusion protein to HeLa-TNFR2 cells after 8 h, HeLa values subtracted, luciferase activity normalised to GpL per binding site
T1 construct: On cells: HeLa-TNFR2, HT1080-Bcl2-TNFR2, transiently transfected HEK293; endogenous on Kym-1 cells; also called huTNFR2; TNFRSF1B
T1 sequence: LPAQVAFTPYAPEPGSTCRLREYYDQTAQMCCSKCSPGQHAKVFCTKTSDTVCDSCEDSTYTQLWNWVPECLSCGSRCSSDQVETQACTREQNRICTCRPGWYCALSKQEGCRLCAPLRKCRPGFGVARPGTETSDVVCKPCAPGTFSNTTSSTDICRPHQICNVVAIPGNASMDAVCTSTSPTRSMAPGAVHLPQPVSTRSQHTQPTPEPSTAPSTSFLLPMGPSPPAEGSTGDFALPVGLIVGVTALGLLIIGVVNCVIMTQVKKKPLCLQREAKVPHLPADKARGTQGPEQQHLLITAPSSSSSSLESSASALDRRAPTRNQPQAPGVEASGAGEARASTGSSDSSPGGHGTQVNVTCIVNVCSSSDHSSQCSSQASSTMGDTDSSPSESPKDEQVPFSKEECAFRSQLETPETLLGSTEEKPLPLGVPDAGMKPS
Method: HeLa-TNFR2 cells were pretreated with 3-10 μg/ml of the indicated anti-TNFR2 antibodies or remained untreated. […] Supernatants of HeLa-TNFR2 cells were then analyzed for TNFR2-induced IL8 production (B) and repeatedly washed cells (HeLa, and HeLa-TNFR2) were analyzed for cell-associated GpL activity. Specific binding to TNFR2, shown in (A) was calculated by subtraction of the unspecific binding values obtained from the HeLa cells from the total binding values derived of the HeLa-TNFR2 cells. […] The latter was transformed into “occupied receptors per cells” by help of the number of cells in the assay and the measured specific activity (RLU/molecule) of the GpL constructs.
Supernatants of HeLa-TNFR2 were then analyzed for TNFR2-induced IL8 production with the results shown in (B). Repeatedly washed cells (HeLa, and HeLa-TNFR2) were analyzed for cell-associated GpL activity. Specific binding to TNFR2, was calculated by subtraction of the unspecific binding values obtained from the HeLa cells from the total binding values derived of the HeLa-TNFR2 cells with the results obtained shown in (A).

Human TNFR2 [2] = biological target: T1, Human TNFR2; experiment: equilibrium binding of VHH-Fc-GpL to cells expressing human TNFR2, 37 °C; HEK293 cells as unspecific binding; one-site fit of specific binding
Murine TNFR2 [3] = biological target: T2, Murine TNFR2 (mouse, UniProt P25119 23-474); experiment: equilibrium binding of VHH-Fc-GpL to cells expressing mouse TNFR2, 37 C; column head Affinity (ng/ml)
T2 construct: Expressed on transiently transfected HEK293 cells; also called mouse TNFR2; TNFR2(mu)
T2 sequence: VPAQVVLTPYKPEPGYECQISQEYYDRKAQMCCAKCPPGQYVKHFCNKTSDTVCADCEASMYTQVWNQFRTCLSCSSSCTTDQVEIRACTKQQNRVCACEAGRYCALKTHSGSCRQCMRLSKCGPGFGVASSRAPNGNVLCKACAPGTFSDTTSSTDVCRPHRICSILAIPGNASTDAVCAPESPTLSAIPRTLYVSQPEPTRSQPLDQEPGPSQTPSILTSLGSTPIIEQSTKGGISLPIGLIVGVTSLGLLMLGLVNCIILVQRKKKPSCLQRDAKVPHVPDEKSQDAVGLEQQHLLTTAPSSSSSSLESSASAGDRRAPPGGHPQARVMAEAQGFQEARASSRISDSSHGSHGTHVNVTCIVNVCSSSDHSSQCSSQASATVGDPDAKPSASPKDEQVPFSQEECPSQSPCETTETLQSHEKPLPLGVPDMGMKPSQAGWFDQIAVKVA
Method: (§1) Specific binding (open circles) was obtained by subtraction of the non-specific binding values (Hek293 cells—crosses) from the binding values for transfectants expressing human TNFR2 (total binding—closed circles). Specific binding was analyzed with the “nonlinear regression to a one-site specific binding curve” function of the GraphPad Prism5 software.
(§2) The equivalent experiment was also performed using TNFR2 from different species, namely from Mus musculus (mouse), Macaca fascicularis (cynomolgus monkey), and Chlorocebus sabaeus (African green monkey) to study the ability of the VHH regions to bind to TNFR2 from different species. The ability to cross react to TNFR2 from different species can be helpful in allowing the antibodies to be studied in various models before assessment in human patients.

Cynomolgus TNFR2 [4] = biological target: T3, Cynomolgus TNFR2 (Macaca fascicularis (cynomolgus monkey), UniProt P20333 26-461 (human entry)); experiment: equilibrium binding of VHH-Fc-GpL to cells expressing cynomolgus TNFR2, 37 C; column head Affinity (ng/ml)
T3 construct: Expressed on transiently transfected HEK293 cells; also called TNFR2-cyno; monkey TNFR2
T3 chain: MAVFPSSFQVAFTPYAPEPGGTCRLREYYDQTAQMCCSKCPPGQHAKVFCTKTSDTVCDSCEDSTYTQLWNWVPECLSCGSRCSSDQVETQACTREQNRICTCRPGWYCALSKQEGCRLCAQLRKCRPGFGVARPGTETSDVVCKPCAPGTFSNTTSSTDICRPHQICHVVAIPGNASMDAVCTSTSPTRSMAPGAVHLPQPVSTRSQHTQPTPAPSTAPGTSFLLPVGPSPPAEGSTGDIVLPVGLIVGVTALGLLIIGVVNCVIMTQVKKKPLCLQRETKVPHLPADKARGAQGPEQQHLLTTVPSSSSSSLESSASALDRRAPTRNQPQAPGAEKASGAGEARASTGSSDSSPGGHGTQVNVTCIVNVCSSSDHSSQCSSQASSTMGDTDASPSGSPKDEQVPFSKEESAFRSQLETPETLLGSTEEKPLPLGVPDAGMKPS
Method: as §1, §2

[5] = biological target: T4, African green monkey TNFR2 (Chlorocebus sabaeus (African green …)); experiment: equilibrium binding of VHH-Fc-GpL to cells expressing African green monkey TNFR2, 37 C; column head Affinity (ng/ml)
T4 construct: whole, on cells
Method: as §1, §2

Cynomolgus TNFR2 [6] = biological target: T3, Cynomolgus TNFR2; experiment: equilibrium binding of VHH-Fc-GpL to cells expressing cynomolgus TNFR2, 37 C
Method: as §1, §2

Murine TNFR2 [7] = biological target: T2, Murine TNFR2; experiment: equilibrium binding of VHH-Fc-GpL to cells expressing mouse TNFR2, 37 C
Method: as §1, §2

B1: C4-IgG1(N297A)-LC:GpL-HC:scFvC4 (antibody)
light: EVKLVPRQLDIVMTQSHKFMSTSVGDRVSITCKASQDVDTAVAWYQQKPGQSPKLLIYWASTRHTGVPDRFTGSGSGTDYTLTISSVQAEDLARYYCQQYYSVPPTFGGGTKLGSEIKRTVAAPSVFIFPPSDEQLKSGTASVVCLLNNFYPREAKVQWKVDNALQSGNSQESVTEQDSKDSTYSLSSTLTLSKADYEKHKVYACEVTHQGLSSPVTKSFNRGECLEKPTENNEDFNIVAVASNFATTDLDADRGKLPGKKLPLEVLKEMEANARKAGCTRGCLICLSHIKCTPKMKKFIPGRCHTYEGDKESAQGGIGEAIVDIPEIPGFKDLEPMEQFIAQVDLCVDCTTGCLKGLANVQCSDLLKKWLPQRCATFASKIQGQVDKIKGAGGD
heavy: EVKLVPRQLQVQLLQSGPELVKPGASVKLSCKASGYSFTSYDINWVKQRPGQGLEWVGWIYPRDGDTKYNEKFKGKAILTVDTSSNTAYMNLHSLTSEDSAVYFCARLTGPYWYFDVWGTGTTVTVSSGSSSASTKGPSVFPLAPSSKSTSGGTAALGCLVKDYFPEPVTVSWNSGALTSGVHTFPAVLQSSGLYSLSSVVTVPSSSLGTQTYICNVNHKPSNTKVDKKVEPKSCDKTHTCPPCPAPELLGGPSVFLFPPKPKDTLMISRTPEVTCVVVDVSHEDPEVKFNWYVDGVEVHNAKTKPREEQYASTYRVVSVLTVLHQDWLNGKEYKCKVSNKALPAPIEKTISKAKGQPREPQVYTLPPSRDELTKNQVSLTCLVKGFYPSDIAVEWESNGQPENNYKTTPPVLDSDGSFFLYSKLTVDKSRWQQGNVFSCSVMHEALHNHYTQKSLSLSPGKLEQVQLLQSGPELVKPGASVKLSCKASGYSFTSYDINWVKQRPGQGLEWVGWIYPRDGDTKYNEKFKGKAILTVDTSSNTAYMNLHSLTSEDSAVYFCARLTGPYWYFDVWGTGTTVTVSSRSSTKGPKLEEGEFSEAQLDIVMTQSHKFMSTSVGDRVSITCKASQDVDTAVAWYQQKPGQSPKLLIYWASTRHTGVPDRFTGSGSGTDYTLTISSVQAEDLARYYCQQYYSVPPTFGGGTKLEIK
notes: copies: 2 + 2
- binding result (Human TNFR2 [1]): binds

B2: VHH:C188-Fc-GpL (Fc fusion, Gaussia princeps)
chain: DVQLVESGGGSVQTGGSLTLSCAISGSTSERYCLGWFRQAPGREREGVAATSLTGRGAQFYADSVKGRFTISLDDAKNTLYLQMDSLRPDDTAVYYCAEDVGFLCGYDSDNDPFYDWGQGTQVTVSS
notes: also called VHH-Fc-GpL format protein of C188; not shown: Fc domain; Gaussia princeps luciferase (GpL) reporter domain at the C-terminus of the Fc
- Kd (Human TNFR2 [2]): 0.57 µg/mL
- Kd (Murine TNFR2 [3]): 0.95 µg/mL
- Kd (Cynomolgus TNFR2 [4]): 0.45 µg/mL
- Kd [5]: 0.15 µg/mL

B3: VHH:C178-Fc-GpL (Fc fusion)
VHH: DVQLVESGGGLVHPGGSLRLSCAASGFTFSADDATWARQPPGKGLEWISTLYFDTEEKTYADSVKGRFIISRDIAKNTVYLQMNNLKPEDTGMYVCTATWAGGSLLRPASFGVWGQGTQVTVSS
notes: also called VHH-Fc-GpL format protein of C178; not shown: The Fc domain, the C-terminal GpL reporter and the linkers or tags of the VHH-Fc-GpL construct; No entry gives the joined chain or says which Fc variant was used
- binding result (Cynomolgus TNFR2 [6]): no binding
- Kd (Human TNFR2 [2]): 0.9 µg/mL
- binding result (Murine TNFR2 [7]): no binding
- Kd [5]: 0.06 µg/mL

B4: VHH:C238-Fc-GpL (Fc fusion)
VHH: QVQLVESGGGSVQPGGSLTLSCVDSGSAYLSYCMAWFRQAPGKEREGVAAIYYGGDSYYADSVKGRFTISQDHAKNTMYLQMNSLKPEDTAVYYCAADVGFICGYDSDNDPPNDWGQGTQVTVSS
notes: also called VHH-Fc-GpL format protein of C238; not shown: the listing has no entry for the VHH-Fc-GpL format
- Kd (Human TNFR2 [2]): 0.67 µg/mL
- Kd (Murine TNFR2 [3]): 1.05 µg/mL
- Kd (Cynomolgus TNFR2 [4]): 0.2 µg/mL
- Kd [5]: 0.17 µg/mL

B5: VHH:C12-Fc-GpL (Fc fusion)
VHH: DVQLVESGGGLVQPGGSLRLSCGGSGFTFSSYGMSWVRQAPGKGLEWVSGIYDDGSVTDYADSVKGRFTISRDDAKNTVYLQMNSLKSEDTALYYCATGEDGELNYWGQGTQVTVSS
notes: also called VHH-Fc-GpL format protein of C12; not shown: The Fc domain, the C-terminal GpL reporter and the linkers or tags of the VHH-Fc-GpL construct; No entry gives the joined chain or says which Fc variant was used
- binding result (Cynomolgus TNFR2 [6]): no binding
- Kd (Human TNFR2 [2]): 0.8 µg/mL
- binding result (Murine TNFR2 [7]): no binding
- Kd [5]: 0.08 µg/mL
